Source: patent US20150225457A1

Biological target: mouse CEACAM1 on SEB-responsive T cells (mouse), P31809
Test: cell-based or functional assay

TIM3 up-regulation on SEB-responsive T-cells after in vitro re-stimulation (% Mean Fluorescence): 29
B1: mouse CEACAM1 N-domain Fc fusion protein, P31809 35-142 (Fc fusion, UniProt P31809 35-142, looked up, not shown: a dimerising Fc or GST)
chain: EVTIEAVPPQVAEDNNVLLLVHNLPLALGAFAWYKGNTTAIDKEIARFVPNSNMNFTGQAYSGREIIYSNGSLLFQMITMKDMGVYTLDMTDENYRRTQATVRFHVHP
